Assay results as given in patent US20190153059A1 (ADEPTHERA, published 2019).
Where two headings read alike, the source gives them in different places.

T1: type 1 angiotensin II receptor AGTR1 (UniProt P30556 1-359, limits assumed)
T1 sequence (looked up): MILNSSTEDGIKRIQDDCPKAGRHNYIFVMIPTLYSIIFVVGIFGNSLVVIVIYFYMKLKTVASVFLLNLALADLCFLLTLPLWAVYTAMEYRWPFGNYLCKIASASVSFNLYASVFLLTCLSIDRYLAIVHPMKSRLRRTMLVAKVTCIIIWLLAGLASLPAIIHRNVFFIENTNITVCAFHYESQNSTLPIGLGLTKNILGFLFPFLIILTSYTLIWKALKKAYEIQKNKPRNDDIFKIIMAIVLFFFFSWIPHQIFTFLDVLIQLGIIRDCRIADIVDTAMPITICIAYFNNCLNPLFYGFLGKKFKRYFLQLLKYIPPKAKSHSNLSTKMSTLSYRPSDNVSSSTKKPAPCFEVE


Key:
Experiment in all cases: cell-based or functional assay
CLR/RAMP2 receptor [1] = target: T2, CLR/RAMP2 receptor (UniProt Q16602 23-461; O60895 43-175, limits assumed)
T2 sequence (Q16602 23-461 limits assumed, chain 1 of 2): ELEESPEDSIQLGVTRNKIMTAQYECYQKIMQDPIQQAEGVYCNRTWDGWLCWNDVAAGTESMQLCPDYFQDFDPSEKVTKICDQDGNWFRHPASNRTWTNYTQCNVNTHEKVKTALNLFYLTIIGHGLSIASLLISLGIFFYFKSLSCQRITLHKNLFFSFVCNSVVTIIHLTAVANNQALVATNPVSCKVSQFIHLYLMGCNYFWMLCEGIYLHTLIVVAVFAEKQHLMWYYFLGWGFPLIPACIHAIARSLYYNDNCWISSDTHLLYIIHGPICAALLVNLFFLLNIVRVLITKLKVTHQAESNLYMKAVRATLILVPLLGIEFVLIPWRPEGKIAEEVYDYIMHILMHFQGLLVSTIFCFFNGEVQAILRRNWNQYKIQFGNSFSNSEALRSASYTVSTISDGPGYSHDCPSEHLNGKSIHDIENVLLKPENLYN
T2 sequence (O60895 43-175 limits assumed, chain 2 of 2): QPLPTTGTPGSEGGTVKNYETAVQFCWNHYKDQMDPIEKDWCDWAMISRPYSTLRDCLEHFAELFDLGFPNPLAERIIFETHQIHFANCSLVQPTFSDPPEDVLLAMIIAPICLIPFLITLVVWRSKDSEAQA

[2] = target: T1, type 1 angiotensin II receptor AGTR1
CLR/RAMP1 receptor = CLR/RAMP1 receptor (UniProt Q16602 23-461; O60894 27-148, limits assumed)
Chain of CLR/RAMP1 receptor (Q16602 23-461 limits assumed, chain 1 of 2): as the sequence (Q16602 23-461 limits assumed, chain 1 of 2) above
Chain of CLR/RAMP1 receptor (O60894 27-148 limits assumed, chain 2 of 2): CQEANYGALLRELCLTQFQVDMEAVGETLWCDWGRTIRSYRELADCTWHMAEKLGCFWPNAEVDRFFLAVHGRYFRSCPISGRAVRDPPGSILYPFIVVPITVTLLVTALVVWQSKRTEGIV

CLR/RAMP2 receptor [3] = target: T2, CLR/RAMP2 receptor; remark: listed apart in the source
[4] = target: T1, type 1 angiotensin II receptor AGTR1; remark: listed apart in the source

Row | CLR/RAMP2 Max Activity (% of positive controls) (CLR/RAMP2 receptor [1]) | AGTR1 IC50 (calcium flux assay) [2] [nM] | CLR/RAMP1 EC50 (CLR/RAMP1 receptor) [nM] | CLR/RAMP1 Max Activity (CLR/RAMP1 receptor) | CLR/RAMP2 EC50 (CLR/RAMP2 receptor [3]) [nM] | CLR/RAMP2 Max Activity (CLR/RAMP2 receptor [3]) | AGTR1 IC50 (calcium flux assay) [4] [nM] | Molecule
1 | 100 |  |  |  |  |  |  | Wild type ADM positive (human ADM positive control) (from UniProt P35318 95-146) (peptide)
2 |  | 19.9 | 0.3 | 132 % of positive controls | 1 | 86 % of positive controls | 20 | RVYVHPAKGCRFGTCTVQKLAHQIYQFTDKDVAPRSKISPQGY (Sar at N-terminus (Sar-RVYVHPA); miniPEG before K(PAL); K(PAL); -NH2) [AGTR1 antagonist/CLR/RAMP agonist MRL (SEQ ID NO: 234)]
